T1: FcγRIIA with the high affinity 131 H/H polymorphism on Jurkat NFAT-luciferase reporter cells (UniProt P12318 34-317, limits assumed)
T1 sequence (looked up): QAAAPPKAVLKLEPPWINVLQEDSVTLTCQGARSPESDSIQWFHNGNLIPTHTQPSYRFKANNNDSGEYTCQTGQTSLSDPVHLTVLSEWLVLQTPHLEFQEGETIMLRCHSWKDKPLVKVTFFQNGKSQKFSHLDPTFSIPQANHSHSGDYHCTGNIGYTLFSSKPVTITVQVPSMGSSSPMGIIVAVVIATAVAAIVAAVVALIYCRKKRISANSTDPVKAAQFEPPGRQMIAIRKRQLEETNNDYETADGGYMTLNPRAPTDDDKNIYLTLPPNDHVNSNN

T2: W58A
T2 construct: also called human OX40 alanine mutant W58A on 1624-5 cells
T2 receptor chain: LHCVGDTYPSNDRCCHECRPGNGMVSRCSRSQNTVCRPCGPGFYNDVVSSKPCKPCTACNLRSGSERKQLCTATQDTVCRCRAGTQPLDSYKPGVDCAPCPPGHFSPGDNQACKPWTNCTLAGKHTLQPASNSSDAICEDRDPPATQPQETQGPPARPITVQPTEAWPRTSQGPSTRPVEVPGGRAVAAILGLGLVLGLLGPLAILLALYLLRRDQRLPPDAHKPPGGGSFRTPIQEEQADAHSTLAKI

T3: N60A
T3 construct: also called human OX40 alanine mutant N60A on 1624-5 cells
T3 receptor chain: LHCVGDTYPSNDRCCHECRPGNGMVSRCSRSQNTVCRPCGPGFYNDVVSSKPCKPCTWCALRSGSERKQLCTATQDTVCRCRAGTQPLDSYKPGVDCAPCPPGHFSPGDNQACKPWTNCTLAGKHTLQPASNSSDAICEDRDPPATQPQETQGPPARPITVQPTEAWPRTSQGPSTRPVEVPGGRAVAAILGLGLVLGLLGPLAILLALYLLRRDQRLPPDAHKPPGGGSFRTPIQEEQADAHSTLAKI

T4: R62A
T4 construct: also called human OX40 alanine mutant R62A on 1624-5 cells
T4 receptor chain: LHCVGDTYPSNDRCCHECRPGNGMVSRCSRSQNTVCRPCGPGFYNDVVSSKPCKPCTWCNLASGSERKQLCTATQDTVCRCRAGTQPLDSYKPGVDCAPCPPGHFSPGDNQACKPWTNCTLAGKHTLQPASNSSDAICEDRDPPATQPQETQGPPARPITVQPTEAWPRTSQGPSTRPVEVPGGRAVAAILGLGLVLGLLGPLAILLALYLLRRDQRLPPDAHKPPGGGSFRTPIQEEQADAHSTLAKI

T5: R80A
T5 construct: also called human OX40 alanine mutant R80A on 1624-5 cells
T5 receptor chain: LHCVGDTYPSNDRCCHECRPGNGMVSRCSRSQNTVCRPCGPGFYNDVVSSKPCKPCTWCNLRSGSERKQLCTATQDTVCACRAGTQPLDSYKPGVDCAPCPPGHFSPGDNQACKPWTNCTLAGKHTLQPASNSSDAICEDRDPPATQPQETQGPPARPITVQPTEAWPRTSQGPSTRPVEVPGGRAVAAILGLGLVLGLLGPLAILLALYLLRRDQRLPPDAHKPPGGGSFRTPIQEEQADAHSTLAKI

T6: L88A
T6 construct: also called human OX40 alanine mutant L88A on 1624-5 cells
T6 receptor chain: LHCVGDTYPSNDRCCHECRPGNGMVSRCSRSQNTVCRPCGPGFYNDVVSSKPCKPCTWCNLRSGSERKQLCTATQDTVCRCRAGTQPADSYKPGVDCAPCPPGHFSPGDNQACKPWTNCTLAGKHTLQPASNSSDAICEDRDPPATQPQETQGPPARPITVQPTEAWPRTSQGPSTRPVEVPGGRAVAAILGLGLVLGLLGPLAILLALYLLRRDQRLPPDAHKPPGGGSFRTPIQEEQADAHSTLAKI

T7: P93A
T7 construct: also called human OX40 alanine mutant P93A on 1624-5 cells
T7 receptor chain: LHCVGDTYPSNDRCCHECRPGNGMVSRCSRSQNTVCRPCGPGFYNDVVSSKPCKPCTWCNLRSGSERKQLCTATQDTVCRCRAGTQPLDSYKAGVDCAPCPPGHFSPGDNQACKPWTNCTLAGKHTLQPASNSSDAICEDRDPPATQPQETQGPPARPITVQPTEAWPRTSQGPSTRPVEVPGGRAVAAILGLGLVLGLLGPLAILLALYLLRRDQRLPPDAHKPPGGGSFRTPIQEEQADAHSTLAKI

T8: P99A
T8 construct: also called human OX40 alanine mutant P99A on 1624-5 cells
T8 receptor chain: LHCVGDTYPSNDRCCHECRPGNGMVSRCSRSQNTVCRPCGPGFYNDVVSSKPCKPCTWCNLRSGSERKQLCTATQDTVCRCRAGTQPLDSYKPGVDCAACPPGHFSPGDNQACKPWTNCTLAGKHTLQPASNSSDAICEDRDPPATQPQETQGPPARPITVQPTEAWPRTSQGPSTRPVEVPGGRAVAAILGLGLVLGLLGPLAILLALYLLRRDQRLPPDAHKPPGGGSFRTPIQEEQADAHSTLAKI

T9: P115A
T9 construct: also called human OX40 alanine mutant P115A on 1624-5 cells
T9 receptor chain: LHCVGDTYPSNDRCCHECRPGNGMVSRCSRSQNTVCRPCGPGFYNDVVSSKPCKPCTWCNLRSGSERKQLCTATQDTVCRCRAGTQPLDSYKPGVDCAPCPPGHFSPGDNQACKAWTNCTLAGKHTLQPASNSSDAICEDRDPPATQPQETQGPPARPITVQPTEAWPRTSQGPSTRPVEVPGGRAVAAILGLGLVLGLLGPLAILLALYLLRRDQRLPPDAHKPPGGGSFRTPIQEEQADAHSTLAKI


Tests used:
[1] = target: T1, FcγRIIA with the high affinity 131 H/H …; assay: cell-based or functional assay
[2] = target: T2, W58A; assay: flow cytometry on 1624-5 cells expressing the human OX40 alanine mutant; pab1928 at 1.1 and 0.4 µg/ml
Experimental: (§1) This anti-OX40 antibody non-reactive cell population was subjected to a final, single-cell sorting step. […] The polyclonal anti-OX40 antibody (AF3388, R&D systems) conjugated with APC was diluted at 1:2000. Fc receptor block (1:200; BD Cat no. 553142) was added, and the samples were incubated for 20 minutes at 4° C. […] The cells were then washed and acquired using a flow cytometer (BD Biosciences).

[3] = target: T3, N60A; assay: as above
Experimental: as §1

[4] = target: T4, R62A; assay: as above
Experimental: as §1

[5] = target: T5, R80A; assay: as above
Experimental: as §1

[6] = target: T6, L88A; assay: as above
Experimental: as §1

[7] = target: T7, P93A; assay: as above
Experimental: as §1

[8] = target: T8, P99A; assay: as above
Experimental: as §1

[9] = target: T9, P115A; assay: as above
Experimental: as §1

| EC50 (read off the curve) [1] [nM] | binding result [2] | binding result [3] | binding result [4] | binding result [5] | binding result [6] | binding result [7] | binding result [8] | binding result [9] | Binder |
| --- | --- | --- | --- | --- | --- | --- | --- | --- | --- |
| ~1 |  |  |  |  |  |  |  |  | pab2193-1 (antibody, human IgG2, kappa) heavy: EVQLVESGGGLVQPGGSLKLSCAASGFTFSGSAMHWVRQASGKGLEWVGRIRSKANSYATAYAASVKGRFTISRDDSKNTAYLQMNSLKTEDTAVYYCTSGIYDSSGYDYWGQGTLVTVSSASTKGPSVFPLAPCSRSTSESTAALGCLVKDYFPEPVTVSWNSGALTSGVHTFPAVLQSSGLYSLSSVVTVPSSNFGTQTYTCNVDHKPSNTKVDKTVERKCCVECPPCPAPPVAGPSVFLFPPKPKDTLMISRTPEVTCVVVDVSHEDPEVQFNWYVDGVEVHNAKTKPREEQFNSTFRVVSVLTVVHQDWLNGKEYKCKVSNKGLPAPIEKTISKTKGQPREPQVYTLPPSREEMTKNQVSLTCLVKGFYPSDIAVEWESNGQPENNYKTTPPMLDSDGSFFLYSKLTVDKSRWQQGNVFSCSVMHEALHNHYTQKSLSLSPG light: not shown |
|  | no binding (tested: 1.1 µg/ml) | binds | binds | binds | binds | binds | binds | binds | pab1928 (antibody, human IgG1, V domains shown, also called made from the variable regions of Hu106-122 (US 2013/0280275)) VH: QVQLVQSGSELKKPGASVKVSCKASGYTFTDYSMHWVRQAPGQGLKWMGWINTETGEPTYADDFKGRFVFSLDTSVSTAYLQISSLKAEDTAVYYCANPYYDYVSYYAMDYWGQGTTVTVSS VL: DIQMTQSPSSLSASVGDRVTITCKASQDVSTAVAWYQQKPGKAPKLLIYSASYLYTGVPSRFSGSGSGTDFTFTISSLQPEDIATYYCQQHYSTPRTFGQGTKLEIKR |
